Target: T1, human MICA004 on cells (human)
T1 construct: whole, on cells; also called CHO-MICA004; C1R-MICA004
Experiment: flow cytometry, CHO-MICA004 cells

T1 sequence (Q29983 whole entry): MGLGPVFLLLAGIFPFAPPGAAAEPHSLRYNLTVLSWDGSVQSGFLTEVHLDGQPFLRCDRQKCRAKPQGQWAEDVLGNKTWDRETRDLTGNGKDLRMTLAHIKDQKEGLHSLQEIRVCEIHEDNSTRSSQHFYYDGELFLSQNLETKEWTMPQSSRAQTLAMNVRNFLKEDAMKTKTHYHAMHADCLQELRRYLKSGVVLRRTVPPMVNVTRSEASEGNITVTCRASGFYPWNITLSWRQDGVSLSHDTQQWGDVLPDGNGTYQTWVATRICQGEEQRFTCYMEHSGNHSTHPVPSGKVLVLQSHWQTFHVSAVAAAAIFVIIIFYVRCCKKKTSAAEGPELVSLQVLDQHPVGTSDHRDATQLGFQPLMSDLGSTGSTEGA

EC50: 0.051 µg/mL
B1: 1D5 (antibody, human IgG1, kappa, V domains shown)
VH: EIQLQQSGPELVKPGASVKVSCKASGYAFTSQNIYWVKQSHGKSLEWIGYIEPYNVVPMYNPKFKGKATLTVDKSSSSAYIHLNSLTSEDSAIYYCARSGSSNFDYWGQGTTLTVSS
VL: EIILTQSPTTMAASPGEKITITCSASSSISSHYLHWYQQKSGFSPKLLIYRTSNLASGVPARFSGSGSGTSYSLTIGTMEAEDVATYYCQQGSSLPLTFGAGTKVEIKR
notes: also called ID5

Source: US20250368742A1 (D2M BIOTHERAPEUTICS, published 2025)
